Source: PMC2944823, “Structural Basis for the Secretion of EvpC: A Key Type VI Secretion System Protein from Edwardsiella tarda” (PLoS ONE, 2010)
Where “and” joins values, the source holds several entries; their conditions need not be identical. Equal values may be shown once.

Experiments:
[1] = target: the molecule itself; assay: SEC; gel filtration (Hiload 16/60 Superdex 75) of EvpC wild type and mutants at 2 mg/ml; self-association, hexamer
[2] = target: the molecule itself; assay: dynamic light scattering; DynaPro instrument, room temperature, EvpC at 6 mg/ml; polydispersity 5%
[3] = target: the molecule itself; assay: AUC; sedimentation velocity, ~2 mg/ml (methods: 2.5 mg/ml), 10 mM Tris-HCl pH 7.0, 200 mM NaCl, with and without DTT, 40,000 rpm, 20°C, absorbance at 280 nm, Sedfit; self-association, dimer and hexamer

Row | Protein | stoichiometry N [1] | stoichiometry N [2] | stoichiometry N [3]
1 | EvpC C-terminal deletion mutant (EvpC M1-N160), K161 K162 K163 deleted (domain or fragment, EvpC, Edwardsiella tarda PPD130/91, residues M1-N160, lacking the C-terminal K161, K162 and K163; also called EvpC 1-160; C-terminal mutant; source: expressed) MAFDTYIKLDKVDGESTDDKHKKWIEVLGFAWGAGNECTMESGTQGLNTGKAMMSVLRVTKWMDCASVKLASAAVQGQNFPTLELEICTQAGDKFAFCIYKFTHVAVSSYQCSGATGGSDRPQETIDFAYKEVTWEYVPQDQNGKAGGKIGPEGWSLITN | 6 | – | –
2 | EvpC from Edwardsiella tarda PPD130/91, wild type, recombinant with 6His tag at C terminus (pETMevpC) (natural protein, selenomethionine (cells grown in defined M9 medium supplemented with 25 mg/L SelMet), EvpC, Hcp homolog of the type VI secretion system (EVP cluster), Edwardsiella tarda PPD130/91; evpC gene amplified from genomic DNA; crystal model holds Ala2 to Lys163; K161-K163 are called the C-terminal residues and the model ends at Lys163, so the whole protein (163 residues) is likely. pETM is a pET32 derivative; no other vector-derived residues are told; also called wild type EvpC; Hcp …) MAFDTYIKLDKVDGESTDDKHKKWIEVLGFAWGAGNECTMESGTQGLNTGKAMMSVLRVTKWMDCASVKLASAAVQGQNFPTLELEICTQAGDKFAFCIYKFTHVAVSSYQCSGATGGSDRPQETIDFAYKEVTWEYVPQDQNGKAGGKIGPEGWSLITNKKK | – | 12 | 2 and 6
3 | EvpC D4A E26A double mutant, 6His tag at C terminus (pETMevpC D4AE26A) (natural protein, EvpC, Edwardsiella tarda PPD130/91, with D4 and E26 substituted with Ala; The text speaks only of 'double' mutants for the gel filtration; source: expressed (pETM plasmid)) MAFATYIKLDKVDGESTDDKHKKWIAVLGFAWGAGNECTMESGTQGLNTGKAMMSVLRVTKWMDCASVKLASAAVQGQNFPTLELEICTQAGDKFAFCIYKFTHVAVSSYQCSGATGGSDRPQETIDFAYKEVTWEYVPQDQNGKAGGKIGPEGWSLITNKKK | 6 | – | –
4 | EvpC D4A E15A E26A triple mutant (natural protein, EvpC, Edwardsiella tarda PPD130/91, with D4, E15 and E26 substituted with Ala; also called N-terminal triple mutant; N-terminal mutant; source: expressed) MAFATYIKLDKVDGASTDDKHKKWIAVLGFAWGAGNECTMESGTQGLNTGKAMMSVLRVTKWMDCASVKLASAAVQGQNFPTLELEICTQAGDKFAFCIYKFTHVAVSSYQCSGATGGSDRPQETIDFAYKEVTWEYVPQDQNGKAGGKIGPEGWSLITNKKK | 6 | – | –
5 | EvpC D4A E15A double mutant, 6His tag at C terminus (pETMevpC D4AE15A) (natural protein, EvpC, Edwardsiella tarda PPD130/91, with D4 and E15 substituted with Ala; The text speaks only of 'double' mutants for the gel filtration; source: expressed (pETM plasmid)) MAFATYIKLDKVDGASTDDKHKKWIEVLGFAWGAGNECTMESGTQGLNTGKAMMSVLRVTKWMDCASVKLASAAVQGQNFPTLELEICTQAGDKFAFCIYKFTHVAVSSYQCSGATGGSDRPQETIDFAYKEVTWEYVPQDQNGKAGGKIGPEGWSLITNKKK | 6 | – | –
6 | EvpC E15A E26A double mutant, 6His tag at C terminus (pETMevpC E15AE26A) (natural protein, EvpC, Edwardsiella tarda PPD130/91, with E15 and E26 substituted with Ala; The text speaks only of 'double' mutants for the gel filtration; source: expressed (pETM plasmid)) MAFDTYIKLDKVDGASTDDKHKKWIAVLGFAWGAGNECTMESGTQGLNTGKAMMSVLRVTKWMDCASVKLASAAVQGQNFPTLELEICTQAGDKFAFCIYKFTHVAVSSYQCSGATGGSDRPQETIDFAYKEVTWEYVPQDQNGKAGGKIGPEGWSLITNKKK | 6 | – | –
